Data on 30 sequences can be found in the nanobody polyreactivity screen of Harvey et al. (2022).

The nature of the data set: yeast display, Sf9 membrane polyspecificity reagent, FACS + sequencing; frameworks hold sequencing errors. A digest of the protocol:
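In a synthetic yeast display library (Saccharomyces cerevisiae BJ5465), nanobody expression was induced with galactose for 36–48 hours. FACS gates were set low and high (top ~1%) using anti-HA fluorescence for expression and streptavidin fluorescence for binding of the Sf9 membrane reagent. Each polyreactivity label is drawn from the gate of origin.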
For “QVQLVESGGGLVQAGGSLRLSCAASGSIFERYAMGWYRQAPGKERELVATISKSGDSTYYADSVKGRFTISRDNAKNTVYLQMNSQKPEDTAVYYCAADGWSETSDATFYYWGQGTQVTVSS”, the “polyreactivity (PSR sort gate)” value is “low polyreactivity”.
“QVQLVESGGGLVQAGGSLRLSCASSGGIFYSYDMGWYRQAPGKERELVAAITWIGGSTYYADSVKGRFTISRDNAKNTVYFQMNSLKPEDTAVYYCAAEILWGGYDYWGQGTQVSVSS”: the “polyreactivity (PSR sort gate)” value was “low polyreactivity”.
Next, “QVQLVESGGGLVQAGGSLRLSCAASGRIFGYYVMGWYRQAPGKERELVATISSGGSTYYADSVKGRFTISRDNAKNTVYLQMNSLKPEDTAVYYCNTDRYHRVDFEYWGQGTQVTVSS”: “high polyreactivity”; “QVQLVESGGGLVQAGGSLRLSCAASGYIFHSYAMGWYRQAPGKERELVAAITSSGGSTYYADSVKGRFTISRDNAKNTVYLQMNSLKPEDTAVYYCAAEYYYVYPYYRSPKFDYWGQGTQVTVSS”: “high polyreactivity”.
Consider “QVQLVESGGGLVQAGGSLRLSCAASGSTLRRYAMGWYRQAPGKERELVAAITSRGTDTYYADSVKGRFTISRDNAKNTVYLQMNSLKPEDTAVYYCANRRGYVYYPGYDYWGQGTQVTVSS”, for which the “polyreactivity (PSR sort gate)” value was “high polyreactivity”.
As for “QVQLVESGGGLVQEGGSLRLSCAASGLIFGRYAMGWYRQAPGKERELVAAISSSGVRTYYADSVKGRFTISRDNAKNTVYLQMNSLKPEDTAVYYCAAAYWSSRDDTVIKRYYWGQGTQVTVSS”, the “polyreactivity (PSR sort gate)” value is “high polyreactivity”.
On to “QVQLVESGGGFVQAGCSLRLSCDASGSIFAPNVMGCYRQAPGKERELDAAINFIGGRTYYADSVKGRFTISRDNAKNTVYLQMNSLKTEDTSVYYCNVGSYYRSYSGDFEYWGQGTQVTVSS”, for which the “polyreactivity (PSR sort gate)” value is “high polyreactivity”.
“QVQLVESGGGLVQAGGSLRLSCAASGFTFHSYAMGWYRQAPGKERELVAAISTGGTRTYYADSVMGRVTISRDNAKNTVYLQMNSLKPEDTAVYYCAADLYRGVRIYSKYDSWGQGTQVTVSS”: the “polyreactivity (PSR sort gate)” value was “high polyreactivity”.
As to “QVQLVESGGGLVQAGGSLRLSCAATGSIFAVYAMGWYRQAPGKERELVARITRGGGSTYYADSVKGRFTISRDNAKNTVYLQMNSLKPEDTAVYYCAAARWSQYRTWMNYWGQGTQVTVSS”, the “polyreactivity (PSR sort gate)” value is “high polyreactivity”.
In the case of “QVQLVESGGGLVQAGGSLRLSCAASGITLAYNVMGWYRQAPGKERELVAGITRSGGSTYYADSVKGRFTISRDNAKNTVYLQMNSLKPEDTAVYYCAAGFTYLNYTPWYRFNYWGQGTQVTVSS” it was “high polyreactivity”; in that of “QVQLVESGGGLVQAGGSLLLSCAASGFTFSYYAMGWYRPAPGKERELVAAINWNGGSTYYADSVKGRFTISRDNAKNTVYLQMNSLKPEDTAVYYCNARQSYRYSQHGYWGQGTQLTVSS”, “high polyreactivity”; in that of “QVQLVESGGGLVQAGGSIRLSCAASGFIFGGYAMGWYRQAPGKERELVAAITRSGGSTYYADSVKGRFTISRDNAKTTVYFQMNSLKPEDTAVYYCAAVPYRKHSYPFRLNYWGQGTQVTVSS”, “high polyreactivity”.
For “QDQLVESGGGLVQAGGSLRLSCAASGSIFRAYAMGWYRQAPGKERELVAAISRSGDSTYYADSVKGRFTISRDNAKNTVYLQMNSLKPEDTAVYYCAAQRKPYVRPSGPYKRRDYWGQGTQVTVSS”, the “polyreactivity (PSR sort gate)” value was “high polyreactivity”.
Next, “QVQLVESGGGLVQAGGSLRLSCAASGRIFGVNAMGWYRQAPGKERELVAAISRSGGSTYYADSVKGRFTISRDNAKNTVYLQMNSLKPEDTAVYYCAAVVKYRYSAYGGDYWRQGTQVTVSS”: “high polyreactivity”; “QVQLVESGGGLVQAGGSLRLSCAASGRTFAGYVMGWYRQAPGKERELVAAISTSGGSTRYADSVKGRFTISRDNAKNTVYLQMNSLKPEDTAVYYCAKLLYLGRWRFPAGYNHWGQGTQVTVSS”: “high polyreactivity”.
With “QVQLVESGGGLVQAGGSLRLSCAASGRIIDNNAMGWYRPAPGKERQLVAAISWSGTSTYYADSVKGRFTISRDHAKNTVYLQMNSLKPEDTAVYYCNADSWFYTRFDYWGQGTQVTVSS”, the “polyreactivity (PSR sort gate)” value is recorded as “high polyreactivity”.
Take “QVQLVESGGGLVQAGGSLRLSCDASGRIFDANVMGWYRQAPGKERELVAAISSGGRTKYADSVKGRFTISRDNAKNTVYLQMNSLKPEDTAVYYCNADYRNDWGTPLWYAYNYWGQGTQVTVSS”: the “polyreactivity (PSR sort gate)” value was “low polyreactivity”.
Consider “QVQLVESGGGLVQAGGSLRLSCAASGRIFYGNAMGWYRQAPGKERELVATISSSGGRTTYADSVKGRFTISRDNAKNTVYLQMNSLKPEDTAVYYCADQGYWTGYDYWGQGTQVTVSS”, for which the “polyreactivity (PSR sort gate)” value is “high polyreactivity”.
In the case of “QVQHVESGGGIVQAGGSLRLSCAASGSTIVDNYMGWYRQAPGKERELVAVINSGGSTYYADSVKGRFTISRDNAKNTGYLQMNSLKPEDTAVYYCAADDIPYGSVYTSIGLDYWGQGTQVTVSS” it was “low polyreactivity”; in that of “QVQLVESGGGLVQAGGSLRLSCAASGRTFYWNAMGWYRQAPGKEREFVAAITNTAGYTYYADSVKGRFTISRDNAKNTVYLQMNSLKPEDTAVYYCAKSGNAGYRTYLRDYWGQGTQVTVSS”, “low polyreactivity”.
For “QVQLVESGGGLLQAGGSLRLSCASSGLIFLGYTMGRYIQAPGKERELVAAISRRGGRTYYADSVKGLFTISRDNAKNTVYLLMNSLKPEDTAVYYCNADITSSGPKSDYWGQGTQVTVSS”, the “polyreactivity (PSR sort gate)” value is “high polyreactivity”.
Next, “QVQLQESGGGLVQAGGSLRLTCAASGTIFRFRYMGWPRQAPGKERELVAGINGGTTTYYADSVIGRFTISRDNAKNTVYLQRNSLKPDDTAVYNCAAGASRLTYYDYWGQGTQVTVSS”: “low polyreactivity”; “QVQLVESGGGLDQAGGSLRLSCAASGSIFDTYAMGWYIQAPGKSWELVAAISWGGGSTYYADSVKGRFTISRDNAKNTVYLQMNSLKPEDTAVYYCATEYFFLGGWYEYWGQGTQVTVSS”: “high polyreactivity”.
As to “QVQLVESGGGLVQAGGSLRLSCAASGFTFRYYAMGWDRQAPGKERDWVAAITRRGGSTYYSDSVKGRFTISRDNAKNTVYLLMNSLKPEDTAVYYCAASLWTTSADYDYWGQGTQVTVSS”, the “polyreactivity (PSR sort gate)” value was “high polyreactivity”.
For the sequence “QVQLVESGGGLVQAGGSLRLSCAASGRIFYWYAMGWYRQAPGKERELVATINSGGSTTYADSVKARFTISRDNAKNTVYLQMNSLKPEDTAVYYCARQRTVKKYYNWGQGTQVTVSS”, the “polyreactivity (PSR sort gate)” value is “high polyreactivity”.
In the case of “QVQLVESGGGLVQAGGSLRLSCAASGSIFLINAMGWYRQAPGKERELVAAISWSGGSTSYADSVKGRFTISRDNAKNTVYFQMNSLKPEDTAVFYCAAESISYRPGYDYWRQGTQVTVSS” it was “low polyreactivity”; in that of “QVQLVDSGGGLVQAGGSLRLRCAASGSTFGIYAMGWYRQAPGKERELVAAISWRGGRTYYADSVKGRFTITRDNAKNNVYFQMNSLKPEDTAVYYCAADYRYLWEGYDYWGQGTQVTVSS”, “low polyreactivity”; in that of “QVQLVESGGGLVQAGGSLRLSCAASGRIFSVYAMGWYRQAPGKEREFVAAITKGGVGTYYADSVKGRFTISRDNAKNTVSLQMNCLKPEDTAVYYCAARGTSRQTWLFRYNWNDYWGQGTQVTVSS”, “high polyreactivity”.
Next, “QVQLVESGGGLVQAGGSLRLSCAASGLTFGNYAMGSYRQAPGKERELVAAITSGGSTYYADSVKGRFTISRDNAKNTVYLQMNSLKPEDTAVYYCAKRQSQHYRSYLMDYWGQGTQVTVSS”: “low polyreactivity”.
In the case of “QVQLVESGGGLVQAGGSLRLSCAASGFIFTPYAMGWYRQAPGKERELVAAIRSGTSTNYADSVKGRFTISRDNAKNTVYLQMNSLKPEDTAVYYCAAEEGLIDGRAWYGYWGQGTQVTVSS” it was “low polyreactivity”.
